Results taken from the supplement of paper PMC9170038.

system: K4 kissing-loop RNA reporter; test: apparent KD of K4 kissing-loop reporter; higher = weaker reporter binding; conditions: Eterna round: R107; input ligand: arginine 13.2 mM
Procedure: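 RNA-MaP round R107: designed RNA switches with theophylline, tryptophan, arginine or FMN aptamers are transcribed on-chip within common flanks. They are titrated with a labelled K4 kissing-loop RNA reporter in RNA-MaP buffer (100 mM Tris pH 7.5, 80 mM KCl, 4 mM MgCl2), without ligand or with the indicated ligand. Median apparent KD per design.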
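Note: bound reporter read as fluorescence of individual clusters on recovered sequencing chips by microscopy, with normalized cluster intensities fitted with a binding model.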

With “UGAUUGGCGAAAGUAGUGAUGUUACGAAUAUAGGAUAUUAGAGGAAUAAGAAGGAUAAAUGAGAAAUAGGUAAAUUGUUGGUUGG [FMN same state]” as the sequence, how does the “apparent KD of K4 kissing-loop reporter” value read?
Its value is 51.5 nM.

With “AGUGAUGUGGGAAGGAGCGGUAUAAGAAUUCAGUGAUGUUGAAGUGUUGCUGUAAUAAAGAGCCAGGUAGGUCGCCUAGAUGUUA [KL-XARG B30]” as the sequence, how does the “apparent KD of K4 kissing-loop reporter” value read?
The value was 775 nM.

For “GAUUAAUAAGAGGAUACCAGUACUAAUAAAGUACAUUAAUAGUAGAGUGAUGUUCUAAAGUACCCUUGGCAGCUUAGAGUAAGUU [#08 K4 Theophylline B Exclusion]”, which “apparent KD of K4 kissing-loop reporter” value is on record?
The value was 224 nM.

For “ACGCUGGAUGAAUAACAUCUAGCGAAAAUUCGAGGACCGGUACGGCCGCCACUCGAGCUAACUGCGAGUGAUGUUCGAUAAUAAA [Mat - Mod of OpenEnded 3 - D6]”, which “apparent KD of K4 kissing-loop reporter” value is on record?
Its value is 374 nM.

For “AGGAGUGAUGUUCCUACAUACACGGUCCGACGAGGACCGGUACGGCCGCCACUCGCGUCCCAGUGAUGUUGGGAUUUGGCGUACA [Exclusion Tryptophan A Gf 16]”, which “apparent KD of K4 kissing-loop reporter” value is on record?
The value was 168 nM.

How did the “apparent KD of K4 kissing-loop reporter” value turn out when “GAUUUAGAGGCGGCCGCCACUAGUGAUGUUAGUGAUGUUUGAUAGGGAAUAUAUCUGCGAGUAGAUAGGACCGGGCCAGAUGGAG [eccvbmullin]” was run?
Its value is 128 nM.

With “AGGCACGAGCAAGGAUAUUGAGUAGAGUGAUGUUCUGCCUGGGUUGGCUCGGAAGAGCCUUCUCAGCGAGAAGGUGCUCGUGCCU [#2 Same State - FMN A Attempt #24 (HarryS)]” as the sequence, how does the “apparent KD of K4 kissing-loop reporter” value read?
The value was 475 nM.

For “GCCCGGUGAAUCCGCCAAGAUAGACACCGUCGAGGACCGGUACGGCCGCCACUCGAGUACGAGUGAUGUUCGUACGCGGUGUCGA [Onedzate]”, which “apparent KD of K4 kissing-loop reporter” value is on record?
Its value is 728 nM.

Which “apparent KD of K4 kissing-loop reporter” value does the source give for “GUUACGCAUGGAAGGAGCGCUCUCCGGCUUAUUAACACAGUGAUGUUGUGAUUUUGCCGAAAGCAGGUAGGUCGCCAUGUGUAAC [Ex Arginine B K4 11]” here?
The value was 363 nM.

“AAAUAAAUCACGGCCGCCACUGCUAGAGUGAUGUUCUAUUAAUAAUUUCUAAAUUAUAUAAUACUCAGGACCGGGUGAUUUUUAA [JR_SSTryptoB_Sub020]” was tested. Which “apparent KD of K4 kissing-loop reporter” value did it give?
The value was 215 nM.

With “UGUCAUUGGUCGGCCGCCACUUCAUAUAGAGUGAUGUUCUGAAAGACGGAUCGAAAGAUCUGUCGAAGGACCGGGACCGAUGACU [FiskerMod 12 - Jieux - Same State - Tryptophan B]” as the sequence, how does the “apparent KD of K4 kissing-loop reporter” value read?
The value was 810 nM.

For “UUAUUAUAUUGUAAUGAUAUAGAAACCGAAGGAGCGACAUAAAAGUCAGGUAGGUCGCGGUGUACUCAGUGAUGUUGAGAGUAUU [JR_SSArginiA_Sub013]”, which “apparent KD of K4 kissing-loop reporter” value is on record?
Its value is 265 nM.

Which “apparent KD of K4 kissing-loop reporter” value does the source give for “AAUAAGGUCGCCGAUACCAGCGCAGGCAGAGCAAAGCUCUGCCUGGUAGUGAUGUUACCGCGCCCUUGGCAGCGGUGGCACGACC [Omei KL Theo B SS C v5]” here?
Its value is 27.1 nM.

Which “apparent KD of K4 kissing-loop reporter” value does the source give for “AUUAAUUUCAGAGGAUAUGCUUAAUUGAUUAAAUAUAAUCUAUUAUGCAGUGAUGUUGCAUUUUUUGCAGAAGGCUGAUUUAUAA [JR_SSFMNB_Sub017]” here?
Its value is 500 nM.

Which “apparent KD of K4 kissing-loop reporter” value does the source give for “GCCUGGGCCCGAAGGAGCGCCGUGACAGGUUACUGCAUUGAGCAGUGAUGUUGCUCAAUCUGGCAGGUAGGUCGCGGGCCCAGGC” here?
The value was 100 nM.

Which “apparent KD of K4 kissing-loop reporter” value does the source give for “UGGAGUUGACGAAAAGUCAACUCCUGAGAUACCAGUGACGAAGGUCACCCUUGGCAGCUCACUGCUAGUGAUGUUGGAAGAUAAA [whbob_SS_Theo_A_w48]” here?
Its value is 276 nM.

Which “apparent KD of K4 kissing-loop reporter” value does the source give for “CACGAUGAAUUCUCUAGGAGUGAUGUUUUUCGAGGACCGGUACGGCCGCCACUCGGACCAGGAGCGUGGUAGCGGCGAAAAGACU [zpmullin]” here?
The value was 256 nM.

For “UAACUGCAGUGAUGUUGCAGAUGUCCUGACUAGGAUAUCAGGAAACUGAGAAGGAGUGCCUUCUAAACAUCACAGAAGGUGGACA [KL-SSFMN-A28]”, which “apparent KD of K4 kissing-loop reporter” value is on record?
The value was 440 nM.

For “AGUGAACGAGCGGCCGCCACUAAAUGAGUGAUGUUCGUGAGUAGUGCUGUUCUCAUGAUUGUUUUUAGGACCGGGUUCGAUGUUG [edcclmullin]”, which “apparent KD of K4 kissing-loop reporter” value is on record?
Its value is 739 nM.

With “AGUUUAGAGUGACUCGAUAAGAGUCACAAACGAGGACCGGUACGGCCGCCACUCGAAAUAACGAGAGUGAUGUUCUCGCUGGGUA [FiskerMod 4 - Jieux - Same State Tryptophan A]” as the sequence, how does the “apparent KD of K4 kissing-loop reporter” value read?
Its value is 330 nM.

Which “apparent KD of K4 kissing-loop reporter” value does the source give for “AGUCCUAUGACGGCCGCCACUCCGGUUAUGAUUUGCCAAGUGAUGUUUGGGUAUCAGGCGAGGCGGAGGACCGGGUCGACCUGCC [theeternabot_exclusion_KL_Trp_B_18]” here?
Its value is 139 nM.

With “UGGGAUGUUAAAGGAUAUAGAAAGUGAUAUUAGAAAGUGAGUGAUGUUGAUGUAAGUGAUGAUAUGUUAGAAGGUUAACAAAACG [abcd]” as the sequence, how does the “apparent KD of K4 kissing-loop reporter” value read?
Its value is 363 nM.

How did the “apparent KD of K4 kissing-loop reporter” value turn out when “AGACUACCACACUGUCAAUAGACAGUGAACUCGGAUAUGCUGAUAAGCAGAAGGAGUGAUGUUCCGAGGUAGUCAAUAAAAUAAU [FmnAX 13 C32+G66]” was run?
Its value is 316 nM.

Which “apparent KD of K4 kissing-loop reporter” value does the source give for “AGACCCUGGUAGGAUACCAGCGGCAUGCAGUGCGAGAGAGCGUAGUGAUGUUACGAGACCCGCCCUUGGCAGCCUGGGAAUGUGU [theeternabot_exclusion_KL_Theo_B_50]” here?
The value was 67.8 nM.

same assay, conditions: Eterna round: R107; input ligand: none

“GAUUCUAGCGAAAGUGAUGUUUUCGAGGAUACCAGUGCCACUUGACACCCUUGGCAGCCUACCCGUCAUCACAAGUGGCGUUAAA [theeternabot_exclusion_KL_Theo_A_28]” was tested. Which “apparent KD of K4 kissing-loop reporter” value did it give?
Its value is 129 nM.

With “AGGAUCCGUCGACAAAAGUCGACAUAAUCCGAGGAUAUGACGAAAGUCAGAAGGUGGACAUAAGUCCAGUGAUGUUGGAGGAUCC [FmnA 17 #SwitchBubble #K4Late]” as the sequence, how does the “apparent KD of K4 kissing-loop reporter” value read?
The value was 441 nM.

With “GCAGUGAUGUUGCGGAUGUACAGUGGCGUGCGAGGACCGGUACGGCCGCCACUCGUACAGAGCAAGCUAAUACAUCGAUAGGUGA [whbob_SS_Tryp_A_m4]” as the sequence, how does the “apparent KD of K4 kissing-loop reporter” value read?
Its value is 207 nM.

“AAGCAGUCCCUUGUUGUCAUCGAAGAUGAACGAGGACCGGUACGGCCGCCACUCGGAGUGAUGUUCCGAAGGCUGCAAAAUAAAA [MatMod 20 - Jieux - Exclusion - Tryptophan A]” was tested. Which “apparent KD of K4 kissing-loop reporter” value did it give?
The value was 116 nM.

How did the “apparent KD of K4 kissing-loop reporter” value turn out when “CCAUCGCUAUUCGAUACCAGUCAGGAGGUCUUUGGCCUCCUAAUGGAGUGAUGUUCCUUAGACCCUUGGCAGCGAAUAGUGAUGG [Theophylline B K4 14]” was run?
Its value is 405 nM.

“AUGGUAUUGCGAGGAUAUCCUUCCCACGUCGAAGUACCGUGCUUGAUGGAGUGAUGUUCGAUCAGAGGAGAAGGCGCGGUGUUAU [Same State FMN B GF22]” was tested. Which “apparent KD of K4 kissing-loop reporter” value did it give?
Its value is 572 nM.

Which “apparent KD of K4 kissing-loop reporter” value does the source give for “UAAUAUCCGUCGGCCGCCACUCACCAGUGAUGUUGGAGGAGUGAUGUUCCACGAGUGAUGUUCGAGAGGACCGGGACGGACGAUG [6th]” here?
The value was 126 nM.

With “UGAUACCAGACGGCCGCCACUCCUAGUGAUGUUAGGAACCUAAAAUAGCAUGUCAAAGACAUGCGGAGGACCGGGUCUGGUAUCU [TrypBX 23 #SwitchBubble #Palindromic #StaticStem]” as the sequence, how does the “apparent KD of K4 kissing-loop reporter” value read?
The value was 104 nM.

Which “apparent KD of K4 kissing-loop reporter” value does the source give for “UGAUUGGCGAAAGUAGUGAUGUUACGAAUAUAGGAUAUUAGAGGAAUAAGAAGGAUAAAUGAGAAAUAGGUAAAUUGUUGGUUGG [FMN same state]” here?
Its value is 95.5 nM.

For “AGUGAUGUGGGAAGGAGCGGUAUAAGAAUUCAGUGAUGUUGAAGUGUUGCUGUAAUAAAGAGCCAGGUAGGUCGCCUAGAUGUUA [KL-XARG B30]”, which “apparent KD of K4 kissing-loop reporter” value is on record?
The value was 940 nM.

Which “apparent KD of K4 kissing-loop reporter” value does the source give for “GAUUAAUAAGAGGAUACCAGUACUAAUAAAGUACAUUAAUAGUAGAGUGAUGUUCUAAAGUACCCUUGGCAGCUUAGAGUAAGUU [#08 K4 Theophylline B Exclusion]” here?
The value was 157 nM.

For “ACGCUGGAUGAAUAACAUCUAGCGAAAAUUCGAGGACCGGUACGGCCGCCACUCGAGCUAACUGCGAGUGAUGUUCGAUAAUAAA [Mat - Mod of OpenEnded 3 - D6]”, which “apparent KD of K4 kissing-loop reporter” value is on record?
The value was 309 nM.

With “AGGAGUGAUGUUCCUACAUACACGGUCCGACGAGGACCGGUACGGCCGCCACUCGCGUCCCAGUGAUGUUGGGAUUUGGCGUACA [Exclusion Tryptophan A Gf 16]” as the sequence, how does the “apparent KD of K4 kissing-loop reporter” value read?
Its value is 180 nM.

For “GAUUUAGAGGCGGCCGCCACUAGUGAUGUUAGUGAUGUUUGAUAGGGAAUAUAUCUGCGAGUAGAUAGGACCGGGCCAGAUGGAG [eccvbmullin]”, which “apparent KD of K4 kissing-loop reporter” value is on record?
Its value is 150 nM.

Which “apparent KD of K4 kissing-loop reporter” value does the source give for “AGGCACGAGCAAGGAUAUUGAGUAGAGUGAUGUUCUGCCUGGGUUGGCUCGGAAGAGCCUUCUCAGCGAGAAGGUGCUCGUGCCU [#2 Same State - FMN A Attempt #24 (HarryS)]” here?
Its value is 785 nM.

“GCCCGGUGAAUCCGCCAAGAUAGACACCGUCGAGGACCGGUACGGCCGCCACUCGAGUACGAGUGAUGUUCGUACGCGGUGUCGA [Onedzate]” was tested. Which “apparent KD of K4 kissing-loop reporter” value did it give?
Its value is 657 nM.
